Results as given in PMC6555819, “Comprehensive study of nuclear receptor DNA binding provides a revised framework for understanding receptor specificity”.

B1: NRC3_wobSeed26_DR1_T8C_o1 (dsDNA)
DNA 1: GCTCTAGCTGGTCAAAGGTCACACACTCGAAATGCGGCGATTGACAGCGTAGAATGAAGG
DNA 2: CCTTCATTCTACGCTGTCAATCGCCGCATTTCGAGTGTGTGACCTTTGACCAGCTAGAGC
B2: NRC3_wobSeed49_DR2_C7G_o1 (dsDNA)
DNA 1: GCCAAAGTAGGTCAAGAGGTCAAAGTCCGCTTCCCGGCGATTGACAGCGTAGAATGAAGG
DNA 2: CCTTCATTCTACGCTGTCAATCGCCGGGAAGCGGACTTTGACCTCTTGACCTACTTTGGC
B3: NRC3_wobSeed97_DR4_T28C_o1 (dsDNA)
DNA 1: GCCAAACTAGGTCACGAAAGGTCAAAGCCGAATGACGCGATTGACAGCGTAGAATGAAGG
DNA 2: CCTTCATTCTACGCTGTCAATCGCGTCATTCGGCTTTGACCTTTCGTGACCTAGTTTGGC
B4: NRC3_wobSeed29_DR1_T22C_o1 (dsDNA)
DNA 1: GCGCTTACGGGTCAAAGGTTACAGCATGAATAGAATGCGATTGACAGCGTAGAATGAAGG
DNA 2: CCTTCATTCTACGCTGTCAATCGCATTCTATTCATGCTGTAACCTTTGACCCGTAAGCGC
B5: NRC3_random_hg19_440_o1 (dsDNA)
DNA 1: GCGAAGGAGTTCTTATCTGGCCAGTTCCCATCCTGTGCGATTGACAGCGTAGAATGAAGG
DNA 2: CCTTCATTCTACGCTGTCAATCGCACAGGATGGGAACTGGCCAGATAAGAACTCCTTCGC
B6: NRC3_random_hg19_411_o1 (dsDNA)
DNA 1: GCATTGAGCAGGTGTTGATTACAAATGAGATGTTTCGCGATTGACAGCGTAGAATGAAGG
DNA 2: CCTTCATTCTACGCTGTCAATCGCGAAACATCTCATTTGTAATCAACACCTGCTCAATGC
B7: NRC3_wobSeed4_DR0_A20T_o1 (dsDNA)
DNA 1: GCCCTACTGGGCCAAGGTCTTTGATCAGTCAAAGCAGCGATTGACAGCGTAGAATGAAGG
DNA 2: CCTTCATTCTACGCTGTCAATCGCTGCTTTGACTGATCAAAGACCTTGGCCCAGTAGGGC
B8: NRC3_random_hg19_306_o1 (dsDNA)
DNA 1: GCAGAGCCCACTTCACTTCCTCAGAAACAGCCCTCCGCGATTGACAGCGTAGAATGAAGG
DNA 2: CCTTCATTCTACGCTGTCAATCGCGGAGGGCTGTTTCTGAGGAAGTGAAGTGGGCTCTGC
B9: NRC3_random_hg19_72_o1 (dsDNA)
DNA 1: GCTCCCAACTAGCTGGAACTACAGGCACCTGCCACCGCGATTGACAGCGTAGAATGAAGG
DNA 2: CCTTCATTCTACGCTGTCAATCGCGGTGGCAGGTGCCTGTAGTTCCAGCTAGTTGGGAGC
B10: NRC3_random_hg19_52_o1 (dsDNA)
DNA 1: GCCCAGGAGCAGTGGCTCACGCCTGTAATCCCAGCAGCGATTGACAGCGTAGAATGAAGG
DNA 2: CCTTCATTCTACGCTGTCAATCGCTGCTGGGATTACAGGCGTGAGCCACTGCTCCTGGGC
B11: NRC3_wobSeed69_DR2_G10T_o1 (dsDNA)
DNA 1: GCAGTCAAATTTCACTAGGTAACGTAAGATTCAGCTGCGATTGACAGCGTAGAATGAAGG
DNA 2: CCTTCATTCTACGCTGTCAATCGCAGCTGAATCTTACGTTACCTAGTGAAATTTGACTGC
B12: NRC3_random_hg19_437_o1 (dsDNA)
DNA 1: GCCGTGTTGGCAGGTGCCTGTACTCTCAGCTACTCGGCGATTGACAGCGTAGAATGAAGG
DNA 2: CCTTCATTCTACGCTGTCAATCGCCGAGTAGCTGAGAGTACAGGCACCTGCCAACACGGC
B13: NRC3_random_hg19_320_o1 (dsDNA)
DNA 1: GCCACACTTGCAGAGGAGAAAGGAGTTTGGAAAGCCGCGATTGACAGCGTAGAATGAAGG
DNA 2: CCTTCATTCTACGCTGTCAATCGCGGCTTTCCAAACTCCTTTCTCCTCTGCAAGTGTGGC
B14: NRC3_random_hg19_141_o1 (dsDNA)
DNA 1: GCATTCTACCACTTCTTGCACCTAGTGCTGCTGTTCGCGATTGACAGCGTAGAATGAAGG
DNA 2: CCTTCATTCTACGCTGTCAATCGCGAACAGCAGCACTAGGTGCAAGAAGTGGTAGAATGC
B15: NRC3_wobSeed134_DR5_T8G_o1 (dsDNA)
DNA 1: GCGCTGCGAGGTCAACTGATGGTCAGCTAAAGCTCGGCGATTGACAGCGTAGAATGAAGG
DNA 2: CCTTCATTCTACGCTGTCAATCGCCGAGCTTTAGCTGACCATCAGTTGACCTCGCAGCGC
B16: NRC3_random_hg19_369_o1 (dsDNA)
DNA 1: GCCAACCCTCTTTCATGTCTGTAAGGAGCTTACCTGGCGATTGACAGCGTAGAATGAAGG
DNA 2: CCTTCATTCTACGCTGTCAATCGCCAGGTAAGCTCCTTACAGACATGAAAGAGGGTTGGC
B17: NRC3_wobSeed23_DR0_G12T_o1 (dsDNA)
DNA 1: GCGGAACGAGGTCAAGTTGATAGCAGAGTTTGATGGGCGATTGACAGCGTAGAATGAAGG
DNA 2: CCTTCATTCTACGCTGTCAATCGCCCATCAAACTCTGCTATCAACTTGACCTCGTTCCGC
B18: NRC3_wobSeed87_DR3_G10A_o1 (dsDNA)
DNA 1: GCCGAACTAAGTCATCCAGGACAGTGAATACATTGAGCGATTGACAGCGTAGAATGAAGG
DNA 2: CCTTCATTCTACGCTGTCAATCGCTCAATGTATTCACTGTCCTGGATGACTTAGTTCGGC
B19: NRC3_wobSeed13_DR0_A15C_o1 (dsDNA)
DNA 1: GCCGTCCAAGGTCACGGTCAGTGAAAGAGACTCGAAGCGATTGACAGCGTAGAATGAAGG
DNA 2: CCTTCATTCTACGCTGTCAATCGCTTCGAGTCTCTTTCACTGACCGTGACCTTGGACGGC
B20: NRC3_wobSeed135_DR5_G10A_o1 (dsDNA)
DNA 1: GCCGAACTAAGTCATTGACAGGACAGTGAATAGTAAGCGATTGACAGCGTAGAATGAAGG
DNA 2: CCTTCATTCTACGCTGTCAATCGCTTACTATTCACTGTCCTGTCAATGACTTAGTTCGGC
B21: NRC3_wobSeed22_DR0_G13C_o1 (dsDNA)
DNA 1: GCTTACCAAGGTCAAGGTCGTTGATCCCTCTGTAGAGCGATTGACAGCGTAGAATGAAGG
DNA 2: CCTTCATTCTACGCTGTCAATCGCTCTACAGAGGGATCAACGACCTTGACCTTGGTAAGC
B22: NRC3_random_hg19_482_o1 (dsDNA)
DNA 1: GCCATCCTGTAAGACACTTCCTCTAAGAAATGGCTAGCGATTGACAGCGTAGAATGAAGG
DNA 2: CCTTCATTCTACGCTGTCAATCGCTAGCCATTTCTTAGAGGAAGTGTCTTACAGGATGGC

Target: RXRa (Homo sapiens, UniProt P19793)
Assay: no ligand; PBM; 180 nM; PBS pH 7.4, 2% milk, 0.02% Triton X-100, 1 mM DTT, BSA, 0.4 mg/ml salmon testes DNA
Conditions: tags: His cleaved; chain copies: 2; label: surface-attached array probe

Sequence of RXRa (P19793 whole entry): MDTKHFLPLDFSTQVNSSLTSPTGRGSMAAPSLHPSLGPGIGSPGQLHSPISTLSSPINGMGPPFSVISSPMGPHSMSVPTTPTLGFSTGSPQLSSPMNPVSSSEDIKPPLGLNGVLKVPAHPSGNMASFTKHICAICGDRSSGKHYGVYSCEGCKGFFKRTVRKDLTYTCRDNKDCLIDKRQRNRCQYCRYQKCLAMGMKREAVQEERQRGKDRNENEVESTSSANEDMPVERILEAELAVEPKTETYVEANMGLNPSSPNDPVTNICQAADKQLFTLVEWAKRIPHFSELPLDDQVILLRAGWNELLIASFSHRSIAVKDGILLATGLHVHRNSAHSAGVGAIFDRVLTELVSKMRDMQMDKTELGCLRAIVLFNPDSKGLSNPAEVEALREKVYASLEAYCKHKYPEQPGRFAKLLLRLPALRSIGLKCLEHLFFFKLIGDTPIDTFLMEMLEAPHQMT

Q: How did the binding signal turn out when B1 was run?
A: The binding signal was 8.94 PBM z-score against 500 random probes.

Q: For B2, which binding signal is on record?
A: Its binding signal is 8.95 PBM z-score against 500 random probes.

Q: B3 was tested. Which binding signal did it give?
A: The binding signal was 8.92 PBM z-score against 500 random probes.

Q: Which binding signal does the source give for B4 here?
A: Its binding signal is 9.84 PBM z-score against 500 random probes.

Target: PPARa:RXRa (Homo sapiens, UniProt Q07869;P19793 full;full)
Assay: no ligand; PBM; 270 nM : 90 nM RXRa; PBS pH 7.4, 2% milk, 0.02% Triton X-100, 1 mM DTT, BSA, 0.4 mg/ml salmon testes DNA
Conditions: tags: GST kept;His cleaved; copies: 1;1; label: surface-attached array probe
How it was run: (§1)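 Regression normalization was applied to scanned fluorescence from custom Agilent 4×180K protein-binding microarrays. Before scanning, arrays were incubated 1 h with ligand-free nuclear receptor dimers, and binding was detected with antibodies against each partner (one per run). Binding z-scores use the random background probes as reference.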

Sequence of PPARa:RXRa (Q07869 whole entry, chain 1 of 2): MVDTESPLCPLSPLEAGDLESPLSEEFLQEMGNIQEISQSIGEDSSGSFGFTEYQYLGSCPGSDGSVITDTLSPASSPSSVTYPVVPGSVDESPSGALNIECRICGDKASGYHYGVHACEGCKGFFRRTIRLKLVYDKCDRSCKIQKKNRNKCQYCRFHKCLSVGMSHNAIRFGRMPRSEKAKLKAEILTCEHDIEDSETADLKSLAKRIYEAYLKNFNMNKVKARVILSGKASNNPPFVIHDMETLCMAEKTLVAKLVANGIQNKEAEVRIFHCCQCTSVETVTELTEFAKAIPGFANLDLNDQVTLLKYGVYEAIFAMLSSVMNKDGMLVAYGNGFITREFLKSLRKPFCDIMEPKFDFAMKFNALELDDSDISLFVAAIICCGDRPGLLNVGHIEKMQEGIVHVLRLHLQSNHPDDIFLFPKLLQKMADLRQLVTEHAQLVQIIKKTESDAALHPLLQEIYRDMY
Sequence of PPARa:RXRa (P19793 whole entry, chain 2 of 2): as the sequence (P19793 whole entry) above

Q: Which binding signal does the source give for B5 here?
A: Its binding signal is -0.35 PBM z-score against 500 random probes.

Q: B6 was tested. Which binding signal did it give?
A: The binding signal was 0.03 PBM z-score against 500 random probes.

Q: For B7, which binding signal is on record?
A: Its binding signal is 0.29 PBM z-score against 500 random probes.

Q: Which binding signal does the source give for B8 here?
A: The binding signal was -0.34 PBM z-score against 500 random probes.

Q: Which binding signal does the source give for B9 here?
A: The binding signal was 0.23 PBM z-score against 500 random probes.

Q: With B10 as the binder, how does the binding signal read?
A: Its binding signal is -0.74 PBM z-score against 500 random probes.

Q: Which binding signal does the source give for B11 here?
A: Its binding signal is 0.35 PBM z-score against 500 random probes.

Q: With B12 as the binder, how does the binding signal read?
A: The binding signal was -0.58 PBM z-score against 500 random probes.

Q: B13 was tested. Which binding signal did it give?
A: Its binding signal is -0.22 PBM z-score against 500 random probes.

Q: For B14, which binding signal is on record?
A: The binding signal was 0.17 PBM z-score against 500 random probes.

Target: RARb:RXRa (Homo sapiens, UniProt P10826;P19793 full;full)
Assay: as above
Conditions: tags: His kept;His cleaved; copies: 1;1; label: surface-attached array probe
How it was run: as §1

Sequence of RARb:RXRa (P10826 whole entry, chain 1 of 2): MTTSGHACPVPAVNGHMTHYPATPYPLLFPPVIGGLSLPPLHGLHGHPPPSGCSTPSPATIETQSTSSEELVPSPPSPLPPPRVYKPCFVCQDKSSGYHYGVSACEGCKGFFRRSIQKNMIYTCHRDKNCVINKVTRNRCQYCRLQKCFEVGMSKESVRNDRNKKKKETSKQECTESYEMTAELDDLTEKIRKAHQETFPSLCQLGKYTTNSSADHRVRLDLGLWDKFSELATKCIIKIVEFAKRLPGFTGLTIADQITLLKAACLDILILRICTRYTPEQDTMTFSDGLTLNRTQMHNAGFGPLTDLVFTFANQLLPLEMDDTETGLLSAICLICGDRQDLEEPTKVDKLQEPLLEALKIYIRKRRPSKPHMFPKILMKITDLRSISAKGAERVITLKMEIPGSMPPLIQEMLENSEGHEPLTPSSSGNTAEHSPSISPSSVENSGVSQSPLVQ
Sequence of RARb:RXRa (P19793 whole entry, chain 2 of 2): as the sequence (P19793 whole entry) above

Q: For B5, which binding signal is on record?
A: The binding signal was -0.36 PBM z-score against 500 random probes.

Q: How did the binding signal turn out when B6 was run?
A: The binding signal was 0 PBM z-score against 500 random probes.

Q: For B7, which binding signal is on record?
A: Its binding signal is 0.33 PBM z-score against 500 random probes.

Q: B15 was tested. Which binding signal did it give?
A: Its binding signal is 5.49 PBM z-score against 500 random probes.

Q: B8 was tested. Which binding signal did it give?
A: Its binding signal is -0.38 PBM z-score against 500 random probes.

Q: How did the binding signal turn out when B16 was run?
A: The binding signal was 0.12 PBM z-score against 500 random probes.

Q: Which binding signal does the source give for B9 here?
A: The binding signal was -0.32 PBM z-score against 500 random probes.

Q: With B10 as the binder, how does the binding signal read?
A: Its binding signal is -0.55 PBM z-score against 500 random probes.

Q: B17 was tested. Which binding signal did it give?
A: Its binding signal is 5.45 PBM z-score against 500 random probes.

Q: How did the binding signal turn out when B11 was run?
A: The binding signal was 0.27 PBM z-score against 500 random probes.

Q: How did the binding signal turn out when B12 was run?
A: The binding signal was -0.44 PBM z-score against 500 random probes.

Q: For B18, which binding signal is on record?
A: Its binding signal is 0.37 PBM z-score against 500 random probes.

Q: How did the binding signal turn out when B19 was run?
A: Its binding signal is 5.97 PBM z-score against 500 random probes.

Q: B20 was tested. Which binding signal did it give?
A: The binding signal was 0.2 PBM z-score against 500 random probes.

Q: For B21, which binding signal is on record?
A: The binding signal was 5.5 PBM z-score against 500 random probes.

Q: For B22, which binding signal is on record?
A: The binding signal was -0.03 PBM z-score against 500 random probes.

Q: Which binding signal does the source give for B13 here?
A: Its binding signal is -0.07 PBM z-score against 500 random probes.

Q: For B14, which binding signal is on record?
A: The binding signal was 0.19 PBM z-score against 500 random probes.

Target: FXR:RXRa (Homo sapiens, UniProt Q96RI1;P19793 full;full)
Assay: as above
Conditions: tags: His kept;His cleaved; copies: 1;1; label: surface-attached array probe
How it was run: as §1

Sequence of FXR:RXRa (Q96RI1 whole entry, chain 1 of 2): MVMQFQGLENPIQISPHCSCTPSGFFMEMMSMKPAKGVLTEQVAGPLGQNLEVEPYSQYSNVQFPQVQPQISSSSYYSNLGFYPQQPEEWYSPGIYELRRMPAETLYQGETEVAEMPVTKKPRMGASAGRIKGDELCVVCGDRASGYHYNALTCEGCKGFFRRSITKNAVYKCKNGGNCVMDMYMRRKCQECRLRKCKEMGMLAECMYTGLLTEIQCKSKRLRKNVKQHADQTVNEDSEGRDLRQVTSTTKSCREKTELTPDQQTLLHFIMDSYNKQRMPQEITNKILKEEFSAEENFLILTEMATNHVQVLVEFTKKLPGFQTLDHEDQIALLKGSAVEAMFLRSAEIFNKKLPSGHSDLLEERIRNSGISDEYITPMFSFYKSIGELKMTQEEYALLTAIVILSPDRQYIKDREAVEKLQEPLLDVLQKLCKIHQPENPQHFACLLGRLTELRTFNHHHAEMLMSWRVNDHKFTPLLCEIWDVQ
Sequence of FXR:RXRa (P19793 whole entry, chain 2 of 2): as the sequence (P19793 whole entry) above

Q: B15 was tested. Which binding signal did it give?
A: Its binding signal is 7.7 PBM z-score against 500 random probes.

Q: Which binding signal does the source give for B16 here?
A: The binding signal was 0.38 PBM z-score against 500 random probes.

Q: How did the binding signal turn out when B17 was run?
A: The binding signal was 8.18 PBM z-score against 500 random probes.

Q: Which binding signal does the source give for B19 here?
A: Its binding signal is 8.3 PBM z-score against 500 random probes.

Q: B21 was tested. Which binding signal did it give?
A: Its binding signal is 7.79 PBM z-score against 500 random probes.

Q: For B13, which binding signal is on record?
A: Its binding signal is 0.28 PBM z-score against 500 random probes.

Target: RARg:RXRa (Homo sapiens, UniProt P13631;P19793 full;full)
Assay: as above
Conditions: tags: His kept;His cleaved; copies: 1;1; label: surface-attached array probe
How it was run: as §1

Sequence of RARg:RXRa (P13631 whole entry, chain 1 of 2): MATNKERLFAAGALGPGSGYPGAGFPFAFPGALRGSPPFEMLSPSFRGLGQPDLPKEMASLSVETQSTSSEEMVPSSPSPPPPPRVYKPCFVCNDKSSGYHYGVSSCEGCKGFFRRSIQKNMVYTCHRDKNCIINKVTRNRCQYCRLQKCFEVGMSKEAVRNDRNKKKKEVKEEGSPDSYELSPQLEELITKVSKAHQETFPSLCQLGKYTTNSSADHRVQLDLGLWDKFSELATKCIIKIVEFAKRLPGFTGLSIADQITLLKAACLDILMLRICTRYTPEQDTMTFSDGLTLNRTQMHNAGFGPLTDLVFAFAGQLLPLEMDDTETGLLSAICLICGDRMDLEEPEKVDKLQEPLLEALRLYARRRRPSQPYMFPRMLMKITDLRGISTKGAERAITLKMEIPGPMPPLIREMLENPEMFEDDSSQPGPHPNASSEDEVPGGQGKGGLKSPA
Sequence of RARg:RXRa (P19793 whole entry, chain 2 of 2): as the sequence (P19793 whole entry) above

Q: Which binding signal does the source give for B5 here?
A: Its binding signal is -0.83 PBM z-score against 500 random probes.

Q: With B15 as the binder, how does the binding signal read?
A: The binding signal was 7.43 PBM z-score against 500 random probes.

Q: Which binding signal does the source give for B16 here?
A: Its binding signal is -0.32 PBM z-score against 500 random probes.

Q: Which binding signal does the source give for B18 here?
A: The binding signal was 0.43 PBM z-score against 500 random probes.

Q: How did the binding signal turn out when B20 was run?
A: Its binding signal is 0.48 PBM z-score against 500 random probes.

Q: Which binding signal does the source give for B22 here?
A: The binding signal was 0.13 PBM z-score against 500 random probes.
